The term Kd denotes the concentration at which binding is half-saturated.

Series [1] concerns the target T1, REST-FL (human, UniProt Q13127 1-1097).
T1 sequence: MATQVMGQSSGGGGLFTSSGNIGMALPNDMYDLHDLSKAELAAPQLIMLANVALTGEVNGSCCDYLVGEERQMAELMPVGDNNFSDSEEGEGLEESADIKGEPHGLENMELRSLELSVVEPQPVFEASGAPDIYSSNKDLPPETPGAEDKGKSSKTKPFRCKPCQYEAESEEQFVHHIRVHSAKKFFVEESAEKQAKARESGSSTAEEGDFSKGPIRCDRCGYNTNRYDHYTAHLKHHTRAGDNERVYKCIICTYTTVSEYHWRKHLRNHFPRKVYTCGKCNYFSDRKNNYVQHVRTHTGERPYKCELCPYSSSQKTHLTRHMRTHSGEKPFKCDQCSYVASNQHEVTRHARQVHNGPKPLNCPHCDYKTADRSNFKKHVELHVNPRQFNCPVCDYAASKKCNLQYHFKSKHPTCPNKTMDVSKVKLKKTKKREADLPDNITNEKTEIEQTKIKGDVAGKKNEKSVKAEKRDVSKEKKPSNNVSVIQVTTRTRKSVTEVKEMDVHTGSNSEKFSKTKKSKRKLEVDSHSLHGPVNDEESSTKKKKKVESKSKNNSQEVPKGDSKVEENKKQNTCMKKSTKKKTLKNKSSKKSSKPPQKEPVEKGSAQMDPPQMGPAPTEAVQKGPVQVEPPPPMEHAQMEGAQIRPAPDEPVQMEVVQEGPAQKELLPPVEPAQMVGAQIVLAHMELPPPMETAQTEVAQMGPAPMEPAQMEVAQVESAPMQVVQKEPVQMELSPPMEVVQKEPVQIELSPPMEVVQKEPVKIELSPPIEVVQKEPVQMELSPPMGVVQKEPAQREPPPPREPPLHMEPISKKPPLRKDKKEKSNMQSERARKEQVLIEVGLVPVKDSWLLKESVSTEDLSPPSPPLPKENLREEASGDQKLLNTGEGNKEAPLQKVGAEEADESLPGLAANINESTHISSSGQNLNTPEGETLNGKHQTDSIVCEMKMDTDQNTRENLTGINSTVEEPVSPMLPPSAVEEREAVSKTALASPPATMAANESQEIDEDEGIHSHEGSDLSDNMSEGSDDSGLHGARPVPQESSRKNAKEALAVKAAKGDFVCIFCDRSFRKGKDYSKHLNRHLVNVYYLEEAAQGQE
Briefly: fluorescence anisotropy. Background: Fluorescence polarisation rises when a labelled molecule tumbles more slowly, as on binding a larger partner.

The target of series [2] is T2, REST-N62 (REST4-S3) (human, UniProt A0A087X1C2 1-340).
T2 sequence: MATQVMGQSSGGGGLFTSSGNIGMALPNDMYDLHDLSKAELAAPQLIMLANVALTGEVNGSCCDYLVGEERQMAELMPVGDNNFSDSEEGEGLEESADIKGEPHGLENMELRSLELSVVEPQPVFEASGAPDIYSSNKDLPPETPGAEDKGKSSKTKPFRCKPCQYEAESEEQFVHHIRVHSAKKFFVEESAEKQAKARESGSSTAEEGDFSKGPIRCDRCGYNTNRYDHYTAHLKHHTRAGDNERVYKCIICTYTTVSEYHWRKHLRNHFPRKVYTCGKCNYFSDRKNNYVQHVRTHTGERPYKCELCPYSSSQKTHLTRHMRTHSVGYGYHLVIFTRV
Briefly: fluorescence anisotropy.

B1: NRSE (RE1) 21 bp duplex (dsDNA)
DNA 1: TTCAGCACCATGGACAGCGCC
DNA 2: GGCGCTGTCCATGGTGCTGAA
In the case of B1, the Kd in series [1] was 5.7 ± 0.6 nM. In addition, the binding result in series [2] was “no binding”.

These data come from article PMC9860152.
